Experimental data reported in the Immune Epitope Database (IEDB).
pKd: −log10 of the molar value.

Experiments:
[1] = target: HLA-A*02:12; assay: IEDB peptide-MHC binding, purified MHC/direct/fluorescence; filed as Kd, often an IC50 or EC50 that approximates it; ≥ and ≤ were set here for values at or beyond the usual limits of such assays; conditions: source organism: Kurkino virus
[2] = target: HLA-A*02:11; assay: as above; conditions: source organism: Kurkino virus
[3] = target: HLA-A*02:01; assay: as above; conditions: source organism: Orthohantavirus dobravaense
[4] = target: HLA-A*69:01; assay: as above; conditions: source organism: Orthohantavirus dobravaense
[5] = target: HLA-A*02:19; assay: as above; conditions: source organism: Kurkino virus
[6] = target: HLA-B*40:13; assay: IEDB peptide-MHC binding, purified MHC/competitive/fluorescence; filed as Kd, often an IC50 or EC50 that approximates it; ≥ and ≤ were set here for values at or beyond the usual limits of such assays; conditions: source organism: Kurkino virus
[7] = target: HLA-A*32:07; assay: as above; conditions: source organism: Kurkino virus
[8] = target: HLA-B*27:20; assay: as above; conditions: source organism: Kurkino virus
[9] = target: HLA-A*32:15; assay: as above; conditions: source organism: Kurkino virus
[10] = target: HLA-B*15:42; assay: as above; conditions: source organism: Kurkino virus
[11] = target: HLA-B*45:06; assay: as above; conditions: source organism: Kurkino virus
[12] = target: HLA-B*83:01; assay: as above; conditions: source organism: Kurkino virus
[13] = target: HLA-A*03:19; assay: as above; conditions: source organism: Kurkino virus

Sequence: SLYSGFPSL
- pKd [1]: ≥ 9.00
- pKd [2]: ≥ 9.00
- pKd [3]: ≥ 9.00
- pKd [4]: ≥ 9.00
- pKd [5]: 7.38
- pKd [6]: 6.80
- pKd [7]: 8.60
- pKd [8]: 7.58
- pKd [9]: 7.52
- pKd [10]: ≤ 5.30
- pKd [11]: ≤ 5.30
- pKd [12]: ≤ 5.30
- pKd [13]: 7.58
